From paper PMC6336319, “EBNA3C facilitates RASSF1A downregulation through ubiquitin-mediated degradation and promoter hypermethylation to drive B-cell proliferation” (PLoS Pathogens, 2019)

Target: T1, Flag-tagged EBNA3C 366-620 (Epstein-Barr virus, UniProt P03204 366-620)
T1 construct: also called pA3F-EBNA3C 366–620; EBNA3C 366-620aa; source: Saos-2, transfected, in lysate
T1 sequence: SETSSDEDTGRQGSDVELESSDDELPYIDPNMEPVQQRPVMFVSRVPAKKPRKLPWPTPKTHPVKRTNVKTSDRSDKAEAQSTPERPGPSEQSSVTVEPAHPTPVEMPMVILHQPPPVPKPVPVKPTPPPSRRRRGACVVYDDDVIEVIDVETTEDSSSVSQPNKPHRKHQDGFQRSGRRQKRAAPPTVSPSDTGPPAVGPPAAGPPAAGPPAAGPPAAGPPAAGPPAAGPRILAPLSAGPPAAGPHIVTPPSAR
Assay: co-IP; Saos-2 cells co-transfected, lysed 48 h later in RIPA buffer (1% NP-40, 10 mM Tris pH 8.0, 2 mM EDTA, 150 mM NaCl); immunoprecipitation with 1 ug anti-Flag antibody, overnight at 4 °C; western blot with anti-Flag and anti-Myc
Conditions: partners not purified

B1: Myc-tagged full-length RASSF1A (Ras association domain family isoform 1A) (natural protein, human, UniProt Q9NS23-2 1-340, looked up)
chain: MSGEPELIELRELAPAGRAGKGRTRLERANALRIARGTACNPTRQLVPGRGHRFQPAGPATHTWCDLCGDFIWGVVRKGLQCAHCKFTCHYRCRALVCLDCCGPRDLGWEPAVERDTNVDEPVEWETPDLSQAEIEQKIKEYNAQINSNLFMSLNKDGSYTGFIKVQLKLVRPVSVPSSKKPPSLQDARRGPGRGTSVRRRTSFYLPKDAVKHLHVLSRTRAREVIEALLRKFLVVDDPRKFALFERAERHGQVYLRKLLDDEQPLRLRLLAGPSDKALSFVLKENDSGEVNWDAFSMPELHNFLRILQREEEEHLRQILQKYSYCRQKIQEALHACPLG
notes: RASSF1A (Ras association domain family isoform 1A), full length, amplified from total RNA by RT-PCR and cloned into pA3M; also called Myc-RASSF1A; pA3M-RASSF1A; source: Saos-2, transfected, in lysate
signal relative to EBNA3C residues 1-365: ~50%
